The values that follow are results of earlier work, collected in PMC3153048.

Data set [1] has as its target ExsD (Pseudomonas aeruginosa) (UniProt Q9I321).
Data set [2] deals with ExsE (Pseudomonas aeruginosa) (UniProt Q9I322).
UniProt Q9I322, sequence (Q9I322 whole entry): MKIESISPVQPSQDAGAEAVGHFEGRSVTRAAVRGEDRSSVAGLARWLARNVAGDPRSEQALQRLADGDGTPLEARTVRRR

UniProt Q9I321, sequence (Q9I321 whole entry): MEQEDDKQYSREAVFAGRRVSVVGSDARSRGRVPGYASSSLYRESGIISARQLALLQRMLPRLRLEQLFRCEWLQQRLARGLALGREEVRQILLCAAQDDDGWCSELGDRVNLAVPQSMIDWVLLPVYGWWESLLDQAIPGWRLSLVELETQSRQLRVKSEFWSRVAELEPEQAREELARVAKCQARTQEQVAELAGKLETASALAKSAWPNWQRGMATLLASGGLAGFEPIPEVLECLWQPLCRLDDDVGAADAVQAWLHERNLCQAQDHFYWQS

One may read the Kd as a measure of binding affinity in units of concentration. On to ExsC (from UniProt P26995), for which the results for the Kd in data set [1] and in data set [2] were 18 nM and 1 nM, respectively.
